The record followed here is patent publication US20200079850A1 (SUTRO BIOPHARMA, published 2020).

For this experiment, the target named is T1, hLAG3 (Acro Biosystems), SPR analyte (human, UniProt P18627 23-450).
T1 construct: also called human LAG3 kinetics
T1 sequence: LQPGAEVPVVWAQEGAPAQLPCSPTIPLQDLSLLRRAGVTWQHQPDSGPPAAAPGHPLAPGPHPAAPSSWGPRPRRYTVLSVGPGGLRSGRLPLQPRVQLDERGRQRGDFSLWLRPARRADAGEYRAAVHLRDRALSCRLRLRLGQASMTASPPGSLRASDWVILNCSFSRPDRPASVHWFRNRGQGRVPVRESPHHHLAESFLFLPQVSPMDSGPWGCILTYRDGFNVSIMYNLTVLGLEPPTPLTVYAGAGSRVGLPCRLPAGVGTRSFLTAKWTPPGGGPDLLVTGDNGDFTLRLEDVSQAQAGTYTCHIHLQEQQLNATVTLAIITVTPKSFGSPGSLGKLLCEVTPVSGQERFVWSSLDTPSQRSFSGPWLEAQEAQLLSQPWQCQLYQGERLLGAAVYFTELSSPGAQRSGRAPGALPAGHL
The experiment is described as follows: SPR (Biacore), antibody captured by anti-Fc, hLAG3 as analyte, 25 C. Here is the method: Anti-Fc polyclonal antibodies were immobilized onto a CMS chip (GE Life Sciences) using amine coupling chemistry (from Amine Coupling Kit, GE Life Sciences). The immobilization steps were carried out at a flow rate of 25 μl/min in 1×HBS-EP+buffer (GE Life Sciences; 10× Stock diluted before use). The sensor surfaces were activated for 7 min with a mixture of NHS (0.05 M) and EDC (0.2 M). The Anti-Fc antibodies were injected over all 4 flow cells at a concentration of 25 ug/ml in 10 mM sodium acetate, pH 4.5, for 7 min. Ethanolamine (1 M, pH 8.5) was injected for 7 min to block any remaining activated groups. An average of 12,000 response units (RU) of capture antibody was immobilized on each flow cell.
Kinetic binding experiments were performed at 25° C. using 1×HBS-EP+buffer. Test and control antibodies were injected over the anti-Fc surface at concentrations of 5-10 μg/mL for 12 seconds at a flow rate of 10 μl/min on flow cells 2, 3 and 4, followed by a buffer wash for 30 seconds at the same flow rate. Kinetic characterization of antibody samples was carried out with a dilution series of antigen and 1 injection of 0 nM antigen. After capturing ligand (antibody) on the anti-Fc surface, the analyte (hPD1 or hLAG3, Acro Biosystems, Newark, Del.) was bound at 100, 25, 6.25 and 0 nM for 180 seconds, followed by a 450 second dissociation phase at a flow rate of 50 μl/min. Between each ligand capture and analyte binding cycle, regeneration was carried out using 2 injections of 10 mM Glycine pH 2.0 for 30 seconds at 30 μL/min, followed by a 30 second buffer wash step.
The data was fit with the Biacore T200 Evaluation software, using a 1:1 Langmuir binding model. KD (affinity, nM) was determined as a ratio of the kinetic rate constants calculated from the fits of the association and dissociation phases.
A general note: SPR reads the build-up and loss of mass on a sensor chip optically.

B1: PD-1/LAG3 Bi-specific Construct C: aPD1 1353-G10 Vk1-39LC scFvFc zwB V262E; aLAG3 1449-G09.2 Fab zwA V262E (bispecific antibody, human IgG1, kappa)
scFv: EVQLVQSGAEVKKPGASVKVSCKASGYRFPHYGISWVRQAPGQGLEWMGWISAYNGNTNYAQKLQGRVTMTTDTSTNTAYMELRSLRSDDTAVYYCARDVDYGTGSGYWGQGTLVTVSSGGGGSGGGGSGGGGSDIQLTQSPSSLSASVGDRVTITCSGDALPKQYAYWYQQKPGKAPKLLIYKDTERPSGVPSRFSGSSSGTKVTLTISSLQPEDFATYYCQSADNSITYRVFGGGTKVEIKAAGSDQEPKSSDKTHTCPPCPAPELLGGPSVFLFPPKPKDTLMISRTPEVTCEVVDVSHEDPEVKFNWYVDGVEVHNAKTKPREEQYNSTYRVVSVLTVLHQDWLNGKEYKCKVSNKALPAPIEKTISKAKGQPREPQVYVLPPSREEMTKNQVSLLCLVKGFYPSDIAVEWESNGQPENNYLTWPPVLDSDGSFFLYSKLTVDKSRWQQGNVFSCSVMHEALHNHYTQKSLSLSPGK
heavy: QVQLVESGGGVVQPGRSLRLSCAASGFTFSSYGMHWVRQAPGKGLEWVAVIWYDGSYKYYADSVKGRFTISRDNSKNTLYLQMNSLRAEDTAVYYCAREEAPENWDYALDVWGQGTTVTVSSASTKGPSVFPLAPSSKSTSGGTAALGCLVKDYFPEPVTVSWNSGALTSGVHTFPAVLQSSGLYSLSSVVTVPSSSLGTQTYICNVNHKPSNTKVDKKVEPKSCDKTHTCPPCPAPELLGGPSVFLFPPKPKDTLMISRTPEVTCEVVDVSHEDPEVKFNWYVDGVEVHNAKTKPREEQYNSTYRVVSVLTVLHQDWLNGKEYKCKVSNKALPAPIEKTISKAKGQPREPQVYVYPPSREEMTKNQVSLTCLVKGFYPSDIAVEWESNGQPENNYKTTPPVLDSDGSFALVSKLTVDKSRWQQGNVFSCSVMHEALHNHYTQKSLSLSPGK
light: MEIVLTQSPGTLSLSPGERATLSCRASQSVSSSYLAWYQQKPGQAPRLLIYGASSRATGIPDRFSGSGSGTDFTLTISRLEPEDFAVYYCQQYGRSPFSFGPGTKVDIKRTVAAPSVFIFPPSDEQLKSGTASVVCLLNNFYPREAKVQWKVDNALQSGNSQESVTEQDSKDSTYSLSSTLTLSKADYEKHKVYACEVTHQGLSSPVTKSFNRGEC
notes: The N-terminal Met is not included
As for B1, the equilibrium dissociation constant (Kd) (as a rule, the concentration at which binding is half-saturated) was 0.519 nM; the off-rate constant (koff) (commonly the first-order rate constant of dissociation) was 0.000694 s⁻¹; the kon (commonly a measure of how fast the partners come together) amounted to 1.34e+06 M⁻¹ s⁻¹.

B2: PD-1/LAG3 Bi-specific Construct B: aPD1 1353-G10 scFvFc zwB R28T/P30D/H31S V262E; aLAG3 1449-G09.2 Fab zwA V262E (bispecific antibody, human IgG1, kappa)
scFv: EVQLVQSGAEVKKPGASVKVSCKASGYTFDSYGISWVRQAPGQGLEWMGWISAYNGNTNYAQKLQGRVTMTTDTSTNTAYMELRSLRSDDTAVYYCARDVDYGTGSGYWGQGTLVTVSSGGGGSGGGGSGGGGSSYELTQPPSVSVSPGQTARITCSGDALPKQYAYWYQQKPGQAPVMVIYKDTERPSGIPERFSGSSSGTKVTLTISGVQAEDEADYYCQSADNSITYRVFGGGTKVTVLAAGSDQEPKSSDKTHTCPPCPAPELLGGPSVFLFPPKPKDTLMISRTPEVTCEVVDVSHEDPEVKFNWYVDGVEVHNAKTKPREEQYNSTYRVVSVLTVLHQDWLNGKEYKCKVSNKALPAPIEKTISKAKGQPREPQVYVLPPSREEMTKNQVSLLCLVKGFYPSDIAVEWESNGQPENNYLTWPPVLDSDGSFFLYSKLTVDKSRWQQGNVFSCSVMHEALHNHYTQKSLSLSPGK
heavy: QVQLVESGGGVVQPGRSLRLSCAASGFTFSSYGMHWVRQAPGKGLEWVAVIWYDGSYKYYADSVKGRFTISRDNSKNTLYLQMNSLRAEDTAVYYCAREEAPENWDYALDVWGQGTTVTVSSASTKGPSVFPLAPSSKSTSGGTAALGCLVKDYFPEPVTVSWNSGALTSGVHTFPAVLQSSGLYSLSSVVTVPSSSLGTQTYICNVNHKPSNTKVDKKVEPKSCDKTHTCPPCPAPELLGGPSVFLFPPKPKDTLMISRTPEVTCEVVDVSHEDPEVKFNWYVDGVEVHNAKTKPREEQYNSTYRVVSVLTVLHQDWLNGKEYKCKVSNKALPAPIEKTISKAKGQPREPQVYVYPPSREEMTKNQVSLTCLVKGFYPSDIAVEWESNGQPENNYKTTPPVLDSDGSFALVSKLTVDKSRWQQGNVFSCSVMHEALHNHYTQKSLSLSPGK
light: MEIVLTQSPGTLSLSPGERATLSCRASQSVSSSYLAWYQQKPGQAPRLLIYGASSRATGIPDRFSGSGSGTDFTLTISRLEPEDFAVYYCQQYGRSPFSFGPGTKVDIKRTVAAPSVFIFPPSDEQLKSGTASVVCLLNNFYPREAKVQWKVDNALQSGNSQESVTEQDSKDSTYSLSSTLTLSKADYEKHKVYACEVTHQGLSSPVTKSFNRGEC
notes: as for B1
B2 displayed a Kd of 0.0944 nM, a koff of 0.000138 s⁻¹ and a kon of 1.46e+06 M⁻¹ s⁻¹.
